Target: N protein NTR (IDR1-NTD-IDR2) (SARS-CoV-2, UniProt P0DTC9 1-248)
Test: EMSA
Settings: protein: recombinant; tags: none stated; label: 5'-32P for EMSA; unlabeled for NMR; hairpin (stem loop)

GGGUGUGGCUGUCACUCGGCUGCAUGCUUAGUGCACUCACGCCC (structured_RNA) [5_SL4 (SL4 RNA)]: binds.
